In patent publication US20100150834A1, “HIGH AFFINITY EPHB RECEPTOR BINDING COMPOUNDS AND METHODS OF USE THEREOF” (priority 2006, published 2010):
One block for each substance: values may come before it. No end group written: not given here.

Legend:
murine EphB4 = target: T1, murine EphB4 (Mus musculus, UniProt P54761); experiment: TNYL-RAW Fc immobilized on protein A ELISA plates, binding of murine EphB4 AP; settings: purified from HEK293 cell culture supernatants (FIG. 5B)
T1 construct: purchased R&D Systems 446-B4-200
T1 sequence (P54761 16-539 limits assumed): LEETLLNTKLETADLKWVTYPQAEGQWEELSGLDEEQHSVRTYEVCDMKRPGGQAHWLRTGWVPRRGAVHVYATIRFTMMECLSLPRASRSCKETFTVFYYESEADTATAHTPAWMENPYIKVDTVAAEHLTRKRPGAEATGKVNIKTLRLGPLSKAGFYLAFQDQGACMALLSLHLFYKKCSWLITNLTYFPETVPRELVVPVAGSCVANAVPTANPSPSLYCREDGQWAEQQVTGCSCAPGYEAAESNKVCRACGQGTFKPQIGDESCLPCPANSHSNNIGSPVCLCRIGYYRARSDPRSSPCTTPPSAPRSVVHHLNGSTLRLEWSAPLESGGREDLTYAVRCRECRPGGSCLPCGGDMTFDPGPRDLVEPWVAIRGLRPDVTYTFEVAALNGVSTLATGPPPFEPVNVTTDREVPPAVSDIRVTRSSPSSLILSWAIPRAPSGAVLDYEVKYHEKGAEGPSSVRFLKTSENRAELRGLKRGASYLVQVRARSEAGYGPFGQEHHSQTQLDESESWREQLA

[1] = Half-life of TNYL-RAW Fc in HEK293 cell culture medium; assay type: in vitro ADME; settings: purified from medium in which HEK293 cells were grown for 4 days
EphB4 [2] = target: T2, EphB4 (Homo sapiens, UniProt P54760); experiment: EphB4 tyrosine phosphorylation in MDA-MB-231 breast cancer cells (immunoprecipitation, PTyr immunoblot); assay type: cell-based; settings: 2 μg/ml, clustered with anti-Fc antibodies, 20 minutes, MDA-MB-231 cells (FIG. 5E)
T2 construct: endogenous in cells; host or cells: MDA-MB-231 breast cancer cells
T2 sequence (P54760 16-987): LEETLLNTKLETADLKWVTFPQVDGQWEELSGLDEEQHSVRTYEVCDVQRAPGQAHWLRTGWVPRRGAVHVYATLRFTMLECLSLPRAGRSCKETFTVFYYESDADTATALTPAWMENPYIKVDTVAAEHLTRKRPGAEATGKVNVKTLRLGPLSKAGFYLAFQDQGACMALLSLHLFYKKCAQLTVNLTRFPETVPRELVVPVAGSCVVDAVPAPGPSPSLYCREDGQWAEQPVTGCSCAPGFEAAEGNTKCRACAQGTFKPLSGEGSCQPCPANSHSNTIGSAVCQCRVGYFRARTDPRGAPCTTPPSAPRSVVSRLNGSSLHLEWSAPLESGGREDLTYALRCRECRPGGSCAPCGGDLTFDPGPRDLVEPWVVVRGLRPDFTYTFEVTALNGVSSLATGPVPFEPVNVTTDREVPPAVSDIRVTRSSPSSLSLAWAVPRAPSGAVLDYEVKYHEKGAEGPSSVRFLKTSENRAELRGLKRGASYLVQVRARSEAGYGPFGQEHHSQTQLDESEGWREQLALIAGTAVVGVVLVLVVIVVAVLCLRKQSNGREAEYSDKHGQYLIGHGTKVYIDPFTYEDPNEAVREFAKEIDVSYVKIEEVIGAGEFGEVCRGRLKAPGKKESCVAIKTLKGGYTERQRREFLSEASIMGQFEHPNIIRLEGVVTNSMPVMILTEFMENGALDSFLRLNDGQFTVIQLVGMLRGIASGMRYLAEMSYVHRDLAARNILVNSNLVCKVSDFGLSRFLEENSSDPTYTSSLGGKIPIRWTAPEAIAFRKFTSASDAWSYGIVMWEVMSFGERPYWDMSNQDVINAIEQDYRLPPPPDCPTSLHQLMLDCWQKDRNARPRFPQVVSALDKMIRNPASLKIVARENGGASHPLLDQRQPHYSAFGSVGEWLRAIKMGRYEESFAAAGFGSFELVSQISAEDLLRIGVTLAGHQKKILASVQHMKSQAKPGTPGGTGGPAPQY
Procedure: EphB4 tyrosine phosphorylation was detected in EphB4 immunoprecipitates by immunoblotting with anti-phosphotyrosine antibodies (PTyr). […] Cells were also stimulated with 1 μg/ml ephrin-B2 Fc or human Fc as positive and negative controls, respectively.

EphB3 = EphB3 (Homo sapiens, UniProt P54753); experiment: EphB receptor specificity (% binding), Table 1; settings: binding to EphB3
Sequence of EphB3 (P54753 34-998): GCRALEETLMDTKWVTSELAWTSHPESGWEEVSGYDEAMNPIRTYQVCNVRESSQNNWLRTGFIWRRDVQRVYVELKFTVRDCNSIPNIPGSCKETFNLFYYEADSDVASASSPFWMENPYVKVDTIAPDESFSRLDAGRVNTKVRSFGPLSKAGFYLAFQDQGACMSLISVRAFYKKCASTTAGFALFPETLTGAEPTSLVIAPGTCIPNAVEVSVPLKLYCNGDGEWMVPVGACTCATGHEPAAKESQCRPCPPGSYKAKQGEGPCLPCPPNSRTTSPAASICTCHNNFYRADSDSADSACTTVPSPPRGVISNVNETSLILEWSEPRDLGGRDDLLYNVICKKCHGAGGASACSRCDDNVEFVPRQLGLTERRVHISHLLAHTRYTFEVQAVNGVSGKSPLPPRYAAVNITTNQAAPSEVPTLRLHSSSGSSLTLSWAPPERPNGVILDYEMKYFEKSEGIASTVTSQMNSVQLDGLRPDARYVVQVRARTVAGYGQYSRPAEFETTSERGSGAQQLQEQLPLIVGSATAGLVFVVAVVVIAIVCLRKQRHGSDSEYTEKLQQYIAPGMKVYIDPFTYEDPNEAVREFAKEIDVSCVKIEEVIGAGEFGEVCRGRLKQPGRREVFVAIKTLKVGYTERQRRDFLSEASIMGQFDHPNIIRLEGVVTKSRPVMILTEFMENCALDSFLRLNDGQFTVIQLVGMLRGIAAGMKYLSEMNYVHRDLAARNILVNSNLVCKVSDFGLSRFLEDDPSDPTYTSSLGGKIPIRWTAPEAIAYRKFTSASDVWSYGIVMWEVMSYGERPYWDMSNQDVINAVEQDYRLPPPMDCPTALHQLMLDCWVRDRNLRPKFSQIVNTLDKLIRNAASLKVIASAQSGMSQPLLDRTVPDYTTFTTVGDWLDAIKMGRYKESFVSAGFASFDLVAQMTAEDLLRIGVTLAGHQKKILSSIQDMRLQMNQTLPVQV

EphB2 = EphB2 (Homo sapiens, UniProt P29323); experiment: EphB receptor specificity (% binding), Table 1; settings: binding to EphB2
Sequence of EphB2 (P29323 19-1055): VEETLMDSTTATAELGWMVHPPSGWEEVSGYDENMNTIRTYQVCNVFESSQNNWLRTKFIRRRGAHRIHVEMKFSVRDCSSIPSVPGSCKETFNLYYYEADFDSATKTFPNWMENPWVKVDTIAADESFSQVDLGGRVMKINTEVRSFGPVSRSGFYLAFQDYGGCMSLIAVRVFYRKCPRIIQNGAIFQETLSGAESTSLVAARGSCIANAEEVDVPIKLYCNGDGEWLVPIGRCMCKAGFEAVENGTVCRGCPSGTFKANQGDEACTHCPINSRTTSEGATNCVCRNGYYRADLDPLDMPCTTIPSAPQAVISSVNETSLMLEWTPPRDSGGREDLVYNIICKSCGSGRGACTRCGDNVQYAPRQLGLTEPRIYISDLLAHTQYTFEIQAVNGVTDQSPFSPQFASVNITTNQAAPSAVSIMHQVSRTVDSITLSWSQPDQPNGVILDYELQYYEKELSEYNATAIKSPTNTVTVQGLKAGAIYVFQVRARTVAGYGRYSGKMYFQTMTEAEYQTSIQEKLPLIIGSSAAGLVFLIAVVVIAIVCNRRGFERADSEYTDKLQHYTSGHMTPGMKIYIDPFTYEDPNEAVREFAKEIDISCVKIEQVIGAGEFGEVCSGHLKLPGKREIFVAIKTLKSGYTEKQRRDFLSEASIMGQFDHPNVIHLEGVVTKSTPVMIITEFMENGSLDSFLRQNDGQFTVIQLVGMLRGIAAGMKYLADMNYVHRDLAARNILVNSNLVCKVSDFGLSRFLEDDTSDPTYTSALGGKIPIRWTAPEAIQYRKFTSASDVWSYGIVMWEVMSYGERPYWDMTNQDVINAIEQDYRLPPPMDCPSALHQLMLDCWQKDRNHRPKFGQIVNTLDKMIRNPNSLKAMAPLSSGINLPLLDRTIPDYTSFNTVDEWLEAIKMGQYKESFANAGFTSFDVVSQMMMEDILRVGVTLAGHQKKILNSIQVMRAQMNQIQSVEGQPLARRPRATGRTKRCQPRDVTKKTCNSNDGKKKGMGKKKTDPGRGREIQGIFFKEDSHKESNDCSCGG

EphB6 = target: T3, EphB6 (Homo sapiens, UniProt O15197); experiment: EphB receptor specificity (% binding), Table 1; settings: binding to EphB6
T3 sequence (O15197 32-1021): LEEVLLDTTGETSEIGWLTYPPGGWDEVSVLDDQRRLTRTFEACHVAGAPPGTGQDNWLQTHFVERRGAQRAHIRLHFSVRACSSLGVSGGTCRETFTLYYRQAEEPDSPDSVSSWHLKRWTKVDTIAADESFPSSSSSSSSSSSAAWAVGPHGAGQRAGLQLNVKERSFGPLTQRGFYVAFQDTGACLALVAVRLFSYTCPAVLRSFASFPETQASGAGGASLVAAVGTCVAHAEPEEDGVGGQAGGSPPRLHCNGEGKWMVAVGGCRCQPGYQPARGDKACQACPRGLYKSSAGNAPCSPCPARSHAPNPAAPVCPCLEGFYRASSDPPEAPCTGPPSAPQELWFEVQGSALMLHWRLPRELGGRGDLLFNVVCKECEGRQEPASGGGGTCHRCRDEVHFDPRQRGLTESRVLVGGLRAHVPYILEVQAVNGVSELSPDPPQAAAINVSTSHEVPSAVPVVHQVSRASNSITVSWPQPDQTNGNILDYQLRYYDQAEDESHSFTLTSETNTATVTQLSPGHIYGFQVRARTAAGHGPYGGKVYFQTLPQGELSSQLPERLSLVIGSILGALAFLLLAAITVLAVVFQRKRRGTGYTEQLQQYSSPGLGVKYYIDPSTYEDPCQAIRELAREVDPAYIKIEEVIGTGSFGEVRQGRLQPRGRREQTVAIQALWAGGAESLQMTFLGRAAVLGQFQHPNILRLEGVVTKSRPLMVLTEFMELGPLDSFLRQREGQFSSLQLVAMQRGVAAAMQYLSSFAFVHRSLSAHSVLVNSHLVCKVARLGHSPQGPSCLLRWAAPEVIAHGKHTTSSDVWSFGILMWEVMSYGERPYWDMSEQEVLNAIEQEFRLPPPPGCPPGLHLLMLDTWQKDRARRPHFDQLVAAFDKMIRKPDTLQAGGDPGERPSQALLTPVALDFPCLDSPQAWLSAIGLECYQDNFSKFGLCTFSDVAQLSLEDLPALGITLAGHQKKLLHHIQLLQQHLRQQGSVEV

EphB4 [3] = target: T4, EphB4 (Mus musculus, UniProt P54761); experiment: EphB receptor specificity (% binding), Table 1; settings: binding to EphB4
T4 sequence (P54761 16-987): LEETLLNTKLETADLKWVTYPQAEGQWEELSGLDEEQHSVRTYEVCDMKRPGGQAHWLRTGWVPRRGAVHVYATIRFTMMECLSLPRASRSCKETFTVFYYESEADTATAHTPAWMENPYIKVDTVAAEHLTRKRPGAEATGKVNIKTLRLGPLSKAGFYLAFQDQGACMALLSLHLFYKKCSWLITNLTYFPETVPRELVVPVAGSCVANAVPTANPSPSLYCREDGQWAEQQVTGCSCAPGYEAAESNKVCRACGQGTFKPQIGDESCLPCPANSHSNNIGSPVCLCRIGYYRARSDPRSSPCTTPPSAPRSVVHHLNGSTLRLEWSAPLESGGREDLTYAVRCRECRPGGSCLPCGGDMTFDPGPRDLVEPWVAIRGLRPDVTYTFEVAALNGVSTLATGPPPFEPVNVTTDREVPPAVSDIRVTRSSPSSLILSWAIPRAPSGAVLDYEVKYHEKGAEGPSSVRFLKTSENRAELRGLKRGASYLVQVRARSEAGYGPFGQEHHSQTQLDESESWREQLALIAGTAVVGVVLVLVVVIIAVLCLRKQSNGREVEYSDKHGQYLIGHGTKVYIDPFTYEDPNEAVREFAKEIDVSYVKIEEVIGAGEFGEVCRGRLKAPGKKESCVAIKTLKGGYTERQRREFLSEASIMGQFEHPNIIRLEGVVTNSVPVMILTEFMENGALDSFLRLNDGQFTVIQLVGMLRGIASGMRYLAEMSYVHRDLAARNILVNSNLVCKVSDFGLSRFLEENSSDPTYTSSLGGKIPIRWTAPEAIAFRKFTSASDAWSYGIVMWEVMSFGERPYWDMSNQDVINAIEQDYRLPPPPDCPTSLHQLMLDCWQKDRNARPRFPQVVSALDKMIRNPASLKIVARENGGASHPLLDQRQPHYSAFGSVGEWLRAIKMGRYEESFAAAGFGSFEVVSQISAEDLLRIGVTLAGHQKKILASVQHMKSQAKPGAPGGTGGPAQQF

EphB1 = experiment: EphB receptor specificity (% binding), Table 1; settings: binding to EphB1
murine EphB4 ectodomain = target: T5, murine EphB4 ectodomain (Mus musculus, UniProt P54761); experiment: Inhibition of murine ephrin-B2 AP binding to immobilized murine EphB4 ectodomain (Example 4)
T5 construct: Wells coated with the murine EphB4 ectodomain
T5 sequence (P54761 16-539 limits assumed): T1 sequence (P54761 16-539 limits assumed)
Procedure: Wells coated with the murine EphB4 ectodomain were incubated with murine ephrin-B2 AP and different concentrations of the indicated peptides. Ephrin-B2 AP binding to the immobilized EphB4 receptor ectodomain was measured in the presence of various concentrations of the peptides and detected by measuring alkaline phosphatase activity. Ephrin-B2 AP binding in the presence of peptide was normalized to binding in the absence of peptide.

Substance: TNYL-RAW Fc fusion protein: TNYL-RAW peptide, GSGSK linker and human Fc of IgG1; two fusion proteins dimerize via the Fc domain (TNYLFSPNGPIARAWGSGSK-{human IgG1 Fc}; also: dimerizes via the Fc domain)
- binding to EphB4 AP (murine EphB4): able to bind EphB4 AP with substantial affinity
- half-life [1]: appears to be longer than that of the synthetic peptide without Fc
- EphB4 tyrosine phosphorylation (EphB4 [2]): did not stimulate EphB4 tyrosine phosphorylation

- EphB Receptor Specificity (% Binding) B3 (EphB3): 2%
- EphB Receptor Specificity (% Binding) B2 (EphB2): 15%
- EphB Receptor Specificity (% Binding) B6 (EphB6): 4%
- EphB Receptor Specificity (% Binding) B4 (EphB4 [3]): 100%
- EphB Receptor Specificity (% Binding) B1 (EphB1): 2%
Substance: 26 (LPHGPVAAWDA; EphB4-binding peptide) [compound 26]

- IC50 (murine EphB4 ectodomain): > 10 µM
Substance: LFSPNGPIARAW [L-RAW]
